Results from publication PMC3401432.
Read-outs that look alike come from different tables or passages of the source.

Tests used:
[1] = target: CryB, GAL4 binding domain fusion (pGBK-T7-cryB) (Rhodobacter sphaeroides); experiment: two-hybrid
[2] = target: His-CryB, purified from E. coli (Rhodobacter sphaeroides); experiment: MST
[3] = target: CryB, GAL4 binding domain fusion (pGBK-T7-cryB) (Rhodobacter sphaeroides); experiment: two-hybrid; remark: listed apart in the source

SCHIC domain of AppA, GAL4 activation domain fusion (pGAD-T7) (domain or fragment)
β-galactosidase activity, percent of the SV40 T antigen + p53 control [1]: 8%

B1: MBP-AppA (full-length AppA tagged with maltose-binding protein) (natural protein)
chain: MQHDLEADVTMTGSDLVSCCYRSLAAPDLTLRDLLDIVETSQAHNARAQLTGALFYSQGVFFQWLEGRPAAVAEVMTHIQRDRRHSNVEILAEEPIAKRRFAGWHMQLSCSEADMRSLGLAESRQIVTVGRSLVADNTNIFSFDRIAAVRRFLSDVCAARTLAPDTPVEADTFALYALTEAQAGRSGRAKAVARLSDLLSTDPLGRLTEVEELLRAHAPTAADFARLFEACAERLTRALAEDRISRMQVTLAYSALQMALRRIHHLPDPQKSVGAVLVAGVPGHKPILEAALAAEMLRAVGWSTSVVHPESVAALAARLKTSRTSTLVVAPSLLEGTEQEADTLRFVSALRARTDLPGLSILVGGRLAQLPPSKLKDSGADAGFAHLALLPAALARVACPANADCCSMRACRMPASQCCDKRINPEFLLANVMPSVLTRISSRQDRRRSA
Kd [2]: 595 nM

B2: AppA full length, GAL4 activation domain fusion (pGAD-T7-appA) (natural protein)
chain: MQHDLEADVTMTGSDLVSCCYRSLAAPDLTLRDLLDIVETSQAHNARAQLTGALFYSQGVFFQWLEGRPAAVAEVMTHIQRDRRHSNVEILAEEPIAKRRFAGWHMQLSCSEADMRSLGLAESRQIVTVGRSLVADNTNIFSFDRIAAVRRFLSDVCAARTLAPDTPVEADTFALYALTEAQAGRSGRAKAVARLSDLLSTDPLGRLTEVEELLRAHAPTAADFARLFEACAERLTRALAEDRISRMQVTLAYSALQMALRRIHHLPDPQKSVGAVLVAGVPGHKPILEAALAAEMLRAVGWSTSVVHPESVAALAARLKTSRTSTLVVAPSLLEGTEQEADTLRFVSALRARTDLPGLSILVGGRLAQLPPSKLKDSGADAGFAHLALLPAALARVACPANADCCSMRACRMPASQCCDKRINPEFLLANVMPSVLTRISSRQDRRRSA
β-galactosidase activity, percent of the SV40 T antigen + p53 control [3]: 40%
